Target: T1, angiotensin-converting enzyme 2 (ACE2), labeled with a detection label (human, UniProt Q9BYF1 18-740)
T1 construct: also called labeled ACE2
Assay: labeled ACE2 on immobilized Mixed Panel antigens, ECL

T1 sequence (Q9BYF1 18-740 limits assumed): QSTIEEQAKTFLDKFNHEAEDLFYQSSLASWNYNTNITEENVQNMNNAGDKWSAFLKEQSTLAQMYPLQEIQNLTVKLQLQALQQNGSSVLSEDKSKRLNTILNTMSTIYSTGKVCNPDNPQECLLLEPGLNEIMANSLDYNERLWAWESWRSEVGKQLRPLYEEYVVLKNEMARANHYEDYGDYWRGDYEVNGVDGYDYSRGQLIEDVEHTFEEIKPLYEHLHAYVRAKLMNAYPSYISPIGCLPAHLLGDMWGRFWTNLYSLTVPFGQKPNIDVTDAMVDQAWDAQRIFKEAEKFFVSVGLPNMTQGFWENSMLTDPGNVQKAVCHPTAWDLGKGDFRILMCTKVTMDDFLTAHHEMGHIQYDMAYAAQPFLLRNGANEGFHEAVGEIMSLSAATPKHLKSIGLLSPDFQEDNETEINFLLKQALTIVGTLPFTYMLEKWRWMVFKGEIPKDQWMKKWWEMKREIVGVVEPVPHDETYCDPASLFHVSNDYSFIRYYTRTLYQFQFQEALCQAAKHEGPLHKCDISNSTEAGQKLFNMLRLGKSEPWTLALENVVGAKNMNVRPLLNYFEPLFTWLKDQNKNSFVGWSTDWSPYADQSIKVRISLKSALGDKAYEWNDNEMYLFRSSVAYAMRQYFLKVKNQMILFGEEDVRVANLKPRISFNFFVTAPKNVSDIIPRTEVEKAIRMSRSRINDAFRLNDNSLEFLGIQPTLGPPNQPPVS

B1: HCoV-OC43 S protein (other)
chain: AVIGDLKCTSDNINDKDTGPPPISTDTVDVTNGLGTYYVLDRVYLNTTLFLNGYYPTSGSTYRNMALKGSVLLSRLWFKPPFLSDFINGIFAKVKNTKVIKDRVMYSEFPAITIGSTFVNTSYSVVVQPRTINSTQDGDNKLQGLLEVSVCQYNMCEYPQTICHPNLGNHRKELWHLDTGVVSCLYKRNFTYDVNADYLYFHFYQEGGTFYAYFTDTGVVTKFLFNVYLGMALSHYYVMPLTCNSKLTLEYWVTPLTSRQYLLAFNQDGIIFNAEDCMSDFMSEIKCKTQSIAPPTGVYELNGYTVQPIADVYRRKPNLPNCNIEAWLNDKSVPSPLNWERKTFSNCNFNMSSLMSFIQADSFTCNNIDAAKIYGMCFSSITIDKFAIPNGRKVDLQLGNLGYLQSFNYRIDTTATSCQLYYNLPAANVSVSRFNPSTWNKRFGFIEDSVFKPRPAGVLTNHDVVYAQHCFKAPKNFCPCKLNGSCVGSGPGKNNGIGTCPAGTNYLTCDNLCTPDPITFTGTYKCPQTKSLVGIGEHCSGLAVKSDYCGGNSCTCRPQAFLGWSADSCLQGDKCNIFANFILHDVNSGLTCSTDLQKANTDIILGVCVNYDLYGILGQGIFVEVNATYYNSWQNLLYDSNGNLYGFRDYIINRTFMIRSCYSGRVSAAFHANSSEPALLFRNIKCNYVFNNSLTRQLQPINYFDSYLGCVVNAYNSTAISVQTCDLTVGSGYCVDYSKNRRSRGAITTGYRFTNFEPFTVNSVNDSLEPVGGLYEIQIPSEFTIGNMVEFIQTSSPKVTIDCAAFVCGDYAACKSQLVEYGSFCDNINAILTEVNELLDTTQLQVANSLMNGVTLSTKLKDGVNFNVDDINFSPVLGCLGSECSKASSRSAIEDLLFDKVKLSDVGFVEAYNNCTGGAEIRDLICVQSYKGIKVLPPLLSENQISGYTLAATSASLFPPWTAAAGVPFYLNVQYRINGLGVTMDVLSQNQKLIANAFNNALYAIQEGFDATNSALVKIQAVVNANAEALNNLLQQLSNRFGAISASLQEILSRLDALEAEAQIDRLINGRLTALNAYVSQQLSDSTLVKFSAAQAMEKVNECVKSQSSRINFCGNGNHIISLVQNAPYGLYFIHFSYVPTKYVTARVSPGLCIAGDRGIAPKSGYFVNVNNTWMYTGSGYYYPEPITENNVVVMSTCAVNYTKAPYVMLNTSIPNLPDFKEELDQWFKNQTSVAPDLSLDYINVTFLDLQVEMNRLQEAIKVLNQSYINLKDIGTYEYYVKWP
Question: Does B1 bind?
Answer: Result: no binding

— patent publication US20250237661A1 (MESO SCALE TECHNOLOGIES, published 2025)
